Laboratory results: PMC3925836 (Advanced healthcare materials, 2013)

What was measured:
[1] = target: T1, GPRP-P40-I60; assay: plate-based fluorescence binding assay
T1 chain: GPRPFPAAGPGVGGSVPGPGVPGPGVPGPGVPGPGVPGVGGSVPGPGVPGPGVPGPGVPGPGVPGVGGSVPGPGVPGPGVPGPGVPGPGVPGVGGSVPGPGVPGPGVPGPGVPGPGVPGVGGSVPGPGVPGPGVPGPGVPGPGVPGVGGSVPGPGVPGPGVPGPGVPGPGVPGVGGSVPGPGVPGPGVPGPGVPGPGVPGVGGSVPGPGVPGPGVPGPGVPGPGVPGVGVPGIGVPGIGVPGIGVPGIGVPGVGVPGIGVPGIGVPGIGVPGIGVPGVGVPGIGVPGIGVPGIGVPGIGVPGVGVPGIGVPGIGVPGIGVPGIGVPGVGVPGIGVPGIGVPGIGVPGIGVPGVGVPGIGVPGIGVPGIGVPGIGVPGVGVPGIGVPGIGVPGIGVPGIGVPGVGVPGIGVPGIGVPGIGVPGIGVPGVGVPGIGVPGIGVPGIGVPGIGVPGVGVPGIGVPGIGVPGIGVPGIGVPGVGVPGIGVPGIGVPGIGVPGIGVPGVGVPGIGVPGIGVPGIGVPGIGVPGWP

[2] = target: T2, GPRP-A80-I60; assay: plate-based fluorescence binding assay
T2 chain: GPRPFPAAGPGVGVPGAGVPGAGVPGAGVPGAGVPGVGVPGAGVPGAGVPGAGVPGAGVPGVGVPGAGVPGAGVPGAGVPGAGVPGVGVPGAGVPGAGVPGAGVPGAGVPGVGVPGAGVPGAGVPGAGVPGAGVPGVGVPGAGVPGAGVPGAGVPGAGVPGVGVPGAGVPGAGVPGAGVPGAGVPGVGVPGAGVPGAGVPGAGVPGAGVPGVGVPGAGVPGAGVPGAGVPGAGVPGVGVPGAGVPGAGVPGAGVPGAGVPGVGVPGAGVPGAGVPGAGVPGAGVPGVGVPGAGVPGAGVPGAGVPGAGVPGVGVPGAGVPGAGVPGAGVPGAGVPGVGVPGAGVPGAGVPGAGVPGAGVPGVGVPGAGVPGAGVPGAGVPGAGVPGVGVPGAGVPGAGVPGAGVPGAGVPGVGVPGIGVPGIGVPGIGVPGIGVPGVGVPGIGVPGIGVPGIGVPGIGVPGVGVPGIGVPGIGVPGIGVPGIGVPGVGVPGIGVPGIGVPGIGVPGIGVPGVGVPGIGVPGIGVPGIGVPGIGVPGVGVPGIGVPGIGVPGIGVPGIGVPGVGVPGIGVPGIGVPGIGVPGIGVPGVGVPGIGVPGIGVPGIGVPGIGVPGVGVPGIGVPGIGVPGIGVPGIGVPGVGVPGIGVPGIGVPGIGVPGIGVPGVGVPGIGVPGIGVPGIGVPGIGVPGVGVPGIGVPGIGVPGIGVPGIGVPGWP

binding result [1]: binds
binding result [2]: binds
B1: GPSP-P40-I60-C labelled with Alexa Fluor 488 or Alexa Fluor 546 (designed binder)
chain: GPSPFPAAGPGVGGSVPGPGVPGPGVPGPGVPGPGVPGVGGSVPGPGVPGPGVPGPGVPGPGVPGVGGSVPGPGVPGPGVPGPGVPGPGVPGVGGSVPGPGVPGPGVPGPGVPGPGVPGVGGSVPGPGVPGPGVPGPGVPGPGVPGVGGSVPGPGVPGPGVPGPGVPGPGVPGVGGSVPGPGVPGPGVPGPGVPGPGVPGVGGSVPGPGVPGPGVPGPGVPGPGVPGVGVPGIGVPGIGVPGIGVPGIGVPGVGVPGIGVPGIGVPGIGVPGIGVPGVGVPGIGVPGIGVPGIGVPGIGVPGVGVPGIGVPGIGVPGIGVPGIGVPGVGVPGIGVPGIGVPGIGVPGIGVPGVGVPGIGVPGIGVPGIGVPGIGVPGVGVPGIGVPGIGVPGIGVPGIGVPGVGVPGIGVPGIGVPGIGVPGIGVPGVGVPGIGVPGIGVPGIGVPGIGVPGVGVPGIGVPGIGVPGIGVPGIGVPGVGVPGIGVPGIGVPGIGVPGIGVPGVGVPGIGVPGIGVPGIGVPGIGVPGWPGGC
modifications: Alexa Fluor 488 or Alexa Fluor 546 on the C-terminal cysteine (sulfhydryl-maleimide)
